These results are taken from US20020160013A1 (RECEPTRON, published 2002).

Holding throughout (experiment): cell-based or functional assay
Assay [1] has as its target Leptin Receptor, long form (UniProt P48357).
The target in assay [2] is Leptin Receptor, long form, P48357.
In a further assay the target is T1, GLUT4 (rat, UniProt P19357 1-509).
T1 sequence (looked up): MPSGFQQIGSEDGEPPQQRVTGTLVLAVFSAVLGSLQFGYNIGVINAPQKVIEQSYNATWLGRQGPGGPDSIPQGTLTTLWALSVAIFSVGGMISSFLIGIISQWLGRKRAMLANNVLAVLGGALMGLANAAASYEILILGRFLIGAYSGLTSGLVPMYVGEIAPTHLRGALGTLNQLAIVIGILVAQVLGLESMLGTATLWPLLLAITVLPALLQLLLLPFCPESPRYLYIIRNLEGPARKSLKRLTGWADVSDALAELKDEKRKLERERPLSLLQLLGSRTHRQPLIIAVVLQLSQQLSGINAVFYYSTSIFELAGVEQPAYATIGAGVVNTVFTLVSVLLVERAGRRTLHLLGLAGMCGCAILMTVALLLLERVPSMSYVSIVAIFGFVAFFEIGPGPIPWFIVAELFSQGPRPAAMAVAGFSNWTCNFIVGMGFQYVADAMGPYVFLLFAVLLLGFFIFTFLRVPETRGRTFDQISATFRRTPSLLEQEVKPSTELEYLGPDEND

A further assay deals with human insulin receptor (human, UniProt P06213 28-1382).
In assay [3] the target is mutated form of the insulin receptor, deletion of residues 713 to 740 (human, UniProt P06213 28-1382).

Sequence of Leptin Receptor, long form, P48357 (P48357 22-1165): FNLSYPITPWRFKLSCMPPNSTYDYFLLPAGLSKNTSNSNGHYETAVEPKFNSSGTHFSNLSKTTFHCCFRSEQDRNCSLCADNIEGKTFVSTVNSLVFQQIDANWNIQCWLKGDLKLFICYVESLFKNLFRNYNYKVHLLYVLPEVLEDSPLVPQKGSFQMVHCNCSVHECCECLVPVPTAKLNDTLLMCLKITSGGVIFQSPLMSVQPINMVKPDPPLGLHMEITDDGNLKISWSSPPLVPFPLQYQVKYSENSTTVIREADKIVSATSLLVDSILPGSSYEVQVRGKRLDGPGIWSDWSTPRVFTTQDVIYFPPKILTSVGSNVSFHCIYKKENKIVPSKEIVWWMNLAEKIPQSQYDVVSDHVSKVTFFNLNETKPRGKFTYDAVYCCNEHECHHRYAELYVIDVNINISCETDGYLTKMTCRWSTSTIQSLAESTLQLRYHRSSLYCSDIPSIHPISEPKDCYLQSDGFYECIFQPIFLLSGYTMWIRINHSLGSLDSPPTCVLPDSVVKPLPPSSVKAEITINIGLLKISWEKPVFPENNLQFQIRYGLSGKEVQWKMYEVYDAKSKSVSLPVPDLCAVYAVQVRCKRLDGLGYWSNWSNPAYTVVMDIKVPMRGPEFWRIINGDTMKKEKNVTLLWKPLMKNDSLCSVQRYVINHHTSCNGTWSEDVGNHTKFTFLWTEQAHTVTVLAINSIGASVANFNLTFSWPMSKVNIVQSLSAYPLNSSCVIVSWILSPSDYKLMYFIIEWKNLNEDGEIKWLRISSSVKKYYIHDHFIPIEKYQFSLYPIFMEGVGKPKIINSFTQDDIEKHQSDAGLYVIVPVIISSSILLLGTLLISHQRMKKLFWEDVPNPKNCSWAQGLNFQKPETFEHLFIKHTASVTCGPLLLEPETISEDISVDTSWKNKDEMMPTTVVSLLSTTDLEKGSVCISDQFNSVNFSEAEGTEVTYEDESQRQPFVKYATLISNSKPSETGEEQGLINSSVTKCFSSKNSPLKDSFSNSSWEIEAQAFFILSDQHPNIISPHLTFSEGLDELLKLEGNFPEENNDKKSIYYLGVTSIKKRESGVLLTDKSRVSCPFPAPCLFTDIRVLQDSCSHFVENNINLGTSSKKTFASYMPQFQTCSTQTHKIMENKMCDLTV
Sequence of Leptin Receptor, long form (P48357 22-1165): as above

“Leptin (from UniProt P41159 22-167) (ligand)” gave an activation (phosphorylation) of JAK2 with 1 ng/ml of OB alone, quantified western blot (arbitrary units) in assay [1] of 2.

In assay [2], KKENKIVPSKEIVWWMNLAEKIP [Leptin Receptor derived peptide] showed an activation (phosphorylation) of JAK2 with 1 ng/ml of OB and 30 µM LRp together, quantified western blot (arbitrary units) of 16; an activation (phosphorylation) of JAK2 with 30 µM LRp alone, quantified western blot (arbitrary units) of 8.

For KTDSQILKELEESSFRKTFEDYLH [Insulin receptor derived peptide], the “enhancement of glucose uptake in rat adipose cells, insulin + 10 µM pepIR” value in the assay with GLUT4 came to 12 fold. Besides, in the assay with human insulin receptor, the “percent internalized receptor at 5 min with 10 µM peptide (125I-insulin, acid wash)” value (shortened to “percent internalized receptor at 5 min”) turned out to be 6%; the “percent internalized receptor at 15 min with 10 µM peptide (125I-insulin, acid wash)” value (“percent internalized receptor at 15 min” below) is 2%; the “percent internalized receptor at 30 min with 10 µM peptide (125I-insulin, acid wash)” value (shortened to “percent internalized receptor at 30 min”) worked out at 6%; the “percent internalized receptor at 60 min with 10 µM peptide (125I-insulin, acid wash)” value (“percent internalized receptor at 60 min” for short) came to 2%. Moreover, in assay [3], the “percent internalized receptor at 5 min” value stood at 5%; the “percent internalized receptor at 15 min” value is -2%; the “percent internalized receptor at 30 min” value is 0%; the “percent internalized receptor at 60 min” value amounted to 2%.

For TWLGRQGPEGPSSIPPGTLTTLW [GLUT4pep], the “enhancement of glucose uptake in rat adipose cells, 10 nM insulin + GLUT4pep” value with GLUT4 came out at 24 fold.

Take GNEQSFRVDLRTLLRYAGGGNEQSFRVDLRTLLRYA [DS-A85]: in the assay with human insulin receptor, the “percent internalized receptor at 5 min” value amounted to 5%; the “percent internalized receptor at 15 min” value turned out to be 9%; the “percent internalized receptor at 30 min” value amounted to 14%; the “percent internalized receptor at 60 min” value came out at 17%. Moreover, in assay [3], the “percent internalized receptor at 5 min” value was -1%; the “percent internalized receptor at 15 min” value turned out to be 0%; the “percent internalized receptor at 30 min” value was 2%; the “percent internalized receptor at 60 min” value is 1%.
